In the supplement of paper PMC10567573:

B1: KRT18 (parent)
chain: RVRSLETENRRLESKIREHLEKKG
B2: PKD2L1 (parent)
chain: VFIFYYVVEEILELHIHRLRYLSS

Variants of: B1
Assay: protein stability index of a GFP-peptide fusion (GPS, HEK-293T) (PSI 1-6); higher = more stable
Details: c terminus: a fixed tail appended
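Further: lentivirally expressed fusions sorted by FACS into six bins by GFP to DsRed ratio, PSI derived from sequencing read proportions per bin multiplied by bin number.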

**Q.** For RVRSLETENRRLESKIREHLEKKD [G24D], which protein stability index is on record?
**A.** 4.87

**Q.** With RVRSLETENRDLESKIREHLEKKG [R11D] as the variant, how does the protein stability index read?
**A.** 5.08

**Q.** For RVRSLETENRFLESKIREHLEKKG [R11F], which protein stability index is on record?
**A.** 4.74

**Q.** With RVRSLETGNRRLESKIREHLEKKG [E8G] as the variant, how does the protein stability index read?
**A.** 4.42

**Q.** For RVRSLETRNRRLESKIREHLEKKG [E8R], which protein stability index is on record?
**A.** 3.46

**Q.** Which protein stability index does the source give for RVRSLETENRRLFSKIREHLEKKG [E13F] here?
**A.** 2.16

**Q.** With RVRSLETENRRLESKIRGHLEKKG [E18G] as the variant, how does the protein stability index read?
**A.** 4.91

**Q.** With RVRSLETENRRLESKIRCHLEKKG [E18C] as the variant, how does the protein stability index read?
**A.** 3.81

**Q.** With RMRSLETENRRLESKIREHLEKKG [V2M] as the variant, how does the protein stability index read?
**A.** 3.82

**Q.** Which protein stability index does the source give for RTRSLETENRRLESKIREHLEKKG [V2T] here?
**A.** 5.11

**Q.** For RVRALETENRRLESKIREHLEKKG [S4A], which protein stability index is on record?
**A.** 4.24

**Q.** Which protein stability index does the source give for HVRSLETENRRLESKIREHLEKKG [R1H] here?
**A.** 4.14

**Q.** With RVRSLETENRRLESKIREHLEKDG [K23D] as the variant, how does the protein stability index read?
**A.** 5.45

**Q.** Which protein stability index does the source give for RVRSLETENRRLESKIGEHLEKKG [R17G] here?
**A.** 5.38

**Q.** Which protein stability index does the source give for RVRSLITENRRLESKIREHLEKKG [E6I] here?
**A.** 3.84

**Q.** For RVRSLETENRRLEPKIREHLEKKG [S14P], which protein stability index is on record?
**A.** 4.86

**Q.** With RVRSLETENRRLEIKIREHLEKKG [S14I] as the variant, how does the protein stability index read?
**A.** 4.38

**Q.** For RVRSLETENRRLESQIREHLEKKG [K15Q], which protein stability index is on record?
**A.** 4.56

**Q.** With RVRSLETENRRLESPIREHLEKKG [K15P] as the variant, how does the protein stability index read?
**A.** 5.23

**Q.** For RVRSLETEVRRLESKIREHLEKKG [N9V], which protein stability index is on record?
**A.** 1.9

**Q.** Which protein stability index does the source give for RVRSLETENARLESKIREHLEKKG [R10A] here?
**A.** 4.16

**Q.** For RVRSLETENTRLESKIREHLEKKG [R10T], which protein stability index is on record?
**A.** 4.71

**Q.** Which protein stability index does the source give for RVMSLETENRRLESKIREHLEKKG [R3M] here?
**A.** 3.72

**Q.** With RVRSLETENRRMESKIREHLEKKG [L12M] as the variant, how does the protein stability index read?
**A.** 3.02

**Q.** Which protein stability index does the source give for RVRSLETENRRCESKIREHLEKKG [L12C] here?
**A.** 4.78

Variants of: B2
Assay: as above
Details: c terminus: a fixed tail appended

**Q.** For VYIFYYVVEEILELHIHRLRYLSS [F2Y], which protein stability index is on record?
**A.** 3.06

**Q.** For VTIFYYVVEEILELHIHRLRYLSS [F2T], which protein stability index is on record?
**A.** 3.77

**Q.** With VQIFYYVVEEILELHIHRLRYLSS [F2Q] as the variant, how does the protein stability index read?
**A.** 3.67

**Q.** Which protein stability index does the source give for VSIFYYVVEEILELHIHRLRYLSS [F2S] here?
**A.** 2.65

**Q.** For VLIFYYVVEEILELHIHRLRYLSS [F2L], which protein stability index is on record?
**A.** 2.11

**Q.** For VHIFYYVVEEILELHIHRLRYLSS [F2H], which protein stability index is on record?
**A.** 1.63

**Q.** Which protein stability index does the source give for VIIFYYVVEEILELHIHRLRYLSS [F2I] here?
**A.** 3.92

**Q.** Which protein stability index does the source give for VKIFYYVVEEILELHIHRLRYLSS [F2K] here?
**A.** 2.56

**Q.** With VPIFYYVVEEILELHIHRLRYLSS [F2P] as the variant, how does the protein stability index read?
**A.** 2

**Q.** With VGIFYYVVEEILELHIHRLRYLSS [F2G] as the variant, how does the protein stability index read?
**A.** 3.34

**Q.** With VMIFYYVVEEILELHIHRLRYLSS [F2M] as the variant, how does the protein stability index read?
**A.** 4.81

**Q.** With VNIFYYVVEEILELHIHRLRYLSS [F2N] as the variant, how does the protein stability index read?
**A.** 3.7

**Q.** Which protein stability index does the source give for VRIFYYVVEEILELHIHRLRYLSS [F2R] here?
**A.** 3.23

**Q.** For VEIFYYVVEEILELHIHRLRYLSS [F2E], which protein stability index is on record?
**A.** 1.5

**Q.** Which protein stability index does the source give for VAIFYYVVEEILELHIHRLRYLSS [F2A] here?
**A.** 1.52

**Q.** Which protein stability index does the source give for VFIFKYVVEEILELHIHRLRYLSS [Y5K] here?
**A.** 3.67

**Q.** For VFIFEYVVEEILELHIHRLRYLSS [Y5E], which protein stability index is on record?
**A.** 2.14

**Q.** Which protein stability index does the source give for VFIFNYVVEEILELHIHRLRYLSS [Y5N] here?
**A.** 2.63

**Q.** With VFIFSYVVEEILELHIHRLRYLSS [Y5S] as the variant, how does the protein stability index read?
**A.** 2.86

**Q.** For VFIFFYVVEEILELHIHRLRYLSS [Y5F], which protein stability index is on record?
**A.** 2.11

**Q.** With VFIFWYVVEEILELHIHRLRYLSS [Y5W] as the variant, how does the protein stability index read?
**A.** 2.24

**Q.** For VFIFGYVVEEILELHIHRLRYLSS [Y5G], which protein stability index is on record?
**A.** 1.31

**Q.** Which protein stability index does the source give for VFIFPYVVEEILELHIHRLRYLSS [Y5P] here?
**A.** 1.66

**Q.** Which protein stability index does the source give for VFIFHYVVEEILELHIHRLRYLSS [Y5H] here?
**A.** 3.91

**Q.** Which protein stability index does the source give for VFIFDYVVEEILELHIHRLRYLSS [Y5D] here?
**A.** 3.1

**Q.** With VFIFTYVVEEILELHIHRLRYLSS [Y5T] as the variant, how does the protein stability index read?
**A.** 2.27

**Q.** With VFIFMYVVEEILELHIHRLRYLSS [Y5M] as the variant, how does the protein stability index read?
**A.** 2.79

**Q.** For VFIFYYWVEEILELHIHRLRYLSS [V7W], which protein stability index is on record?
**A.** 2.54

**Q.** Which protein stability index does the source give for VFIFYYYVEEILELHIHRLRYLSS [V7Y] here?
**A.** 1.75

**Q.** With VFIFYYCVEEILELHIHRLRYLSS [V7C] as the variant, how does the protein stability index read?
**A.** 3.58

**Q.** With VFIFYYNVEEILELHIHRLRYLSS [V7N] as the variant, how does the protein stability index read?
**A.** 2.13

**Q.** For VFIFYYAVEEILELHIHRLRYLSS [V7A], which protein stability index is on record?
**A.** 4.67

**Q.** Which protein stability index does the source give for VFIFYYFVEEILELHIHRLRYLSS [V7F] here?
**A.** 1.93

**Q.** With VFIFYYSVEEILELHIHRLRYLSS [V7S] as the variant, how does the protein stability index read?
**A.** 4.39

**Q.** For VFIFYYPVEEILELHIHRLRYLSS [V7P], which protein stability index is on record?
**A.** 2.85

**Q.** For VFIFYYDVEEILELHIHRLRYLSS [V7D], which protein stability index is on record?
**A.** 3.12

**Q.** With VFIFYYHVEEILELHIHRLRYLSS [V7H] as the variant, how does the protein stability index read?
**A.** 3.16

**Q.** Which protein stability index does the source give for VFIFYYQVEEILELHIHRLRYLSS [V7Q] here?
**A.** 3.24

**Q.** For VFIFYYKVEEILELHIHRLRYLSS [V7K], which protein stability index is on record?
**A.** 3.16

**Q.** For VFIFYYGVEEILELHIHRLRYLSS [V7G], which protein stability index is on record?
**A.** 2.25

**Q.** Which protein stability index does the source give for VFIFYYIVEEILELHIHRLRYLSS [V7I] here?
**A.** 2.11

**Q.** Which protein stability index does the source give for VFIFYYVVEEIRELHIHRLRYLSS [L12R] here?
**A.** 2.27

**Q.** For VFIFYYVVEEICELHIHRLRYLSS [L12C], which protein stability index is on record?
**A.** 2.92

**Q.** With VFIFYYVVEEIDELHIHRLRYLSS [L12D] as the variant, how does the protein stability index read?
**A.** 2.63

**Q.** With VFIFYYVVEEIEELHIHRLRYLSS [L12E] as the variant, how does the protein stability index read?
**A.** 2.76

**Q.** With VFIFYYVVEEIPELHIHRLRYLSS [L12P] as the variant, how does the protein stability index read?
**A.** 1.95

**Q.** With VFIFYYVVEEIFELHIHRLRYLSS [L12F] as the variant, how does the protein stability index read?
**A.** 3.21

**Q.** Which protein stability index does the source give for VFIFYYVVEEIYELHIHRLRYLSS [L12Y] here?
**A.** 2.89

**Q.** Which protein stability index does the source give for VFIFYYVVEEITELHIHRLRYLSS [L12T] here?
**A.** 3.03

**Q.** With VFIFYYVVEEIGELHIHRLRYLSS [L12G] as the variant, how does the protein stability index read?
**A.** 1.89

**Q.** For VFIFYYVVEEIIELHIHRLRYLSS [L12I], which protein stability index is on record?
**A.** 2.21

**Q.** Which protein stability index does the source give for VFIFYYVVEEIHELHIHRLRYLSS [L12H] here?
**A.** 3.78

**Q.** For VFIFYYVVEEIKELHIHRLRYLSS [L12K], which protein stability index is on record?
**A.** 2.59

**Q.** For VFIFYYVVEEINELHIHRLRYLSS [L12N], which protein stability index is on record?
**A.** 2.41

**Q.** Which protein stability index does the source give for VFIFYYVVEEIMELHIHRLRYLSS [L12M] here?
**A.** 2.73

**Q.** Which protein stability index does the source give for VFIFYYVVEEIQELHIHRLRYLSS [L12Q] here?
**A.** 3.48

**Q.** With VFIFYYVVEEIWELHIHRLRYLSS [L12W] as the variant, how does the protein stability index read?
**A.** 2.15

**Q.** With VFIFYYVVEEIAELHIHRLRYLSS [L12A] as the variant, how does the protein stability index read?
**A.** 2.33

**Q.** Which protein stability index does the source give for LFIFYYVVEEILELHIHRLRYLSS [V1L] here?
**A.** 2.15

**Q.** Which protein stability index does the source give for CFIFYYVVEEILELHIHRLRYLSS [V1C] here?
**A.** 1.97

**Q.** For PFIFYYVVEEILELHIHRLRYLSS [V1P], which protein stability index is on record?
**A.** 2.44

**Q.** Which protein stability index does the source give for KFIFYYVVEEILELHIHRLRYLSS [V1K] here?
**A.** 2.63

**Q.** For SFIFYYVVEEILELHIHRLRYLSS [V1S], which protein stability index is on record?
**A.** 1.97

**Q.** With WFIFYYVVEEILELHIHRLRYLSS [V1W] as the variant, how does the protein stability index read?
**A.** 2.35

**Q.** With FFIFYYVVEEILELHIHRLRYLSS [V1F] as the variant, how does the protein stability index read?
**A.** 1.49

**Q.** For GFIFYYVVEEILELHIHRLRYLSS [V1G], which protein stability index is on record?
**A.** 3

**Q.** Which protein stability index does the source give for YFIFYYVVEEILELHIHRLRYLSS [V1Y] here?
**A.** 2.76

**Q.** With NFIFYYVVEEILELHIHRLRYLSS [V1N] as the variant, how does the protein stability index read?
**A.** 2.89

**Q.** With HFIFYYVVEEILELHIHRLRYLSS [V1H] as the variant, how does the protein stability index read?
**A.** 2.21
